Experimental findings from publication PMC9668914, “Understanding VPAC receptor family peptide binding and selectivity” (Nature Communications, 2022) are described below.

In this test the target is PACAP type 1 receptor (PAC1R), PAC1null splice variant, FLAG and His tagged (UniProt P41586).
Chain of PACAP type 1 receptor (PAC1R), PAC1null splice variant, FLAG and His tagged (P41586 21-468, change not shown): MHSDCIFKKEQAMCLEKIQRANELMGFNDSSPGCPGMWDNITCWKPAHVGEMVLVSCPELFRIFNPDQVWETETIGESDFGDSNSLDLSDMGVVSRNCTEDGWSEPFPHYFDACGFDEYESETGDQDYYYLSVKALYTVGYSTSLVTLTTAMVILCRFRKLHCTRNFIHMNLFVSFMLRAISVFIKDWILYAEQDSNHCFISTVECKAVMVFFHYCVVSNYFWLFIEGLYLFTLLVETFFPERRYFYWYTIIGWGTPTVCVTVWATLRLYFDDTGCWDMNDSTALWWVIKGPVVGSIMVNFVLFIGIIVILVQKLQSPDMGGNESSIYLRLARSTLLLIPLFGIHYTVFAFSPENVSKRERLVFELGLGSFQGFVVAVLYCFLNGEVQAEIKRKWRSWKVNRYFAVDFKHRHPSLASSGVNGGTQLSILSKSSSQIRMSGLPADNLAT

Ala4 PACAP27 (peptide) came in with a cAMP potency in COS-7 cells transfected with PAC1R, fold change relative to PACAP27 of 5 fold. On to Gly4 VIP (peptide), for which the cAMP potency in COS-7 cells transfected with PAC1R, fold change relative to VIP stood at 3 fold.
